Measured values from the supplement of paper PMC10126150.
± gives the standard deviation of the averaged measurements.

system: ATP; assay: switch fluorescence ratio, 500 uM ATP over buffer (Cy3 cluster intensity, sum of 5 cycles each) (fold (ratio)); higher = stronger signal-on switching upon ATP binding; sequences stand for … in TCGTCGGCAGCGTCAGATGTGTATAAGAGACAGTTTTTTTTTTTTTTTTTTTTTTTTT…TC; settings: aptamer strand: ATP DNA aptamer (quencher-CACCTGGGGGAGTATTGCGGAGGAAGG + anchor), 100 nM annealed; ATP concentration: 500 uM
Procedure, shortened: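 For every switch-domain sequence, the fluorescence ratio is the mean of per-cluster values, each being summed target-cycle Cy3 intensity over summed buffer-cycle Cy3 intensity. Clusters outside 100-1000 RFU were excluded. On a modified Illumina MiSeq flow-cell, the Cy3-labelled switching-strand clusters were annealed to 100 nM quencher-labelled ATP aptamer, imaged in selection buffer and then after 15 min with 500 uM ATP at 22 °C. Five such cycles were run, with NaOH stripping and re-annealing between them.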
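Further: ATP exposure 15 min at 22 °C before imaging.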

| Sequence | switch fluorescence ratio |
| --- | --- |
| CAGAATGGGG | 0.998 ± 0.014 |
| CAGAATTGTG | 1.02 ± 0.012 |
| CAGACGCGGG | 0.99 ± 0.057 |
| CAGACTTCGG | 0.934 ± 0.016 |
| CAGAGATGGG | 0.9997 ± 0.0049 |
| CAGAGATGTT | 1.01 ± 0.032 |
| CAGAGATTTT | 1.005 ± 0.0029 |
| CAGAGGCGTG | 0.9831 ± 0.0079 |
| CAGAGGGGTT | 1 ± 0.021 |
| CAGAGTAGGG | 0.969 ± 0.049 |
| CAGAGTCCTC | 1.01 ± 0.027 |
| CAGAGTCTGG | 1.04 ± 0.024 |
| CAGAGTGCTG | 1.06 ± 0.03 |
| CAGATATTGG | 1.02 ± 0.023 |
| CAGATATTTC | 1.02 ± 0.021 |
| CAGATGACAG | 0.997 ± 0.012 |
| CAGATGGTTG | 0.9835 ± 0.0041 |
| CAGATGTGAC | 1.057 ± 0.0061 |
| CAGATTATGT | 1.01 ± 0.055 |
| CAGATTGCTC | 0.982 ± 0.037 |
| CAGATTTCTA | 1.02 ± 0.019 |
| CAGCATGGGT | 1.025 ± 0.0034 |
| CAGCCTTATT | 0.997 ± 0.029 |
| CAGCGATTTA | 1.02 ± 0.053 |
| CAGCGCGTCT | 1.07 ± 0.06 |

| Sequence | switch fluorescence ratio |
| --- | --- |
| CAGCGGCTGT | 0.966 ± 0.026 |
| CAGCGGGGGC | 1.01 ± 0.016 |
| CAGCGGTAGG | 1.03 ± 0.016 |
| CAGCTGGAGC | 1 ± 0.017 |
| CAGCTTTCGG | 1.03 ± 0.048 |
| CAGGAGAGGG | 1.02 ± 0.029 |
| CAGGAGCATT | 3.09 ± 1.5 |
| CAGGAGGGGA | 1.01 ± 0.011 |
| CAGGATAAAT | 0.979 ± 0.06 |
| CAGGATCTTG | 0.974 ± 0.031 |
| CAGGCAGTTT | 1.01 ± 0.016 |
| CAGGCGGAAA | 0.98 ± 0.015 |
| CAGGCGGGGA | 1.004 ± 0.0074 |
| CAGGCGGTTT | 0.969 ± 0.029 |
| CAGGCTAAGA | 1.026 ± 0.0047 |
| CAGGCTTTGC | 0.992 ± 0.076 |
| CAGGGAGACG | 1.12 ± 0.047 |
| CAGGGAGCAG | 1.05 ± 0.03 |
| CAGGGAGCCT | 0.988 ± 0.05 |
| CAGGGAGGGG | 0.995 ± 0.032 |
| CAGGGAGGGT | 0.983 ± 0.014 |
| CAGGGCAATG | 1.2 ± 0.045 |
| CAGGGCAGCC | 1.01 ± 0.03 |
| CAGGGCCATG | 1.009 ± 0.0014 |
| CAGGGCTGGT | 0.976 ± 0.015 |

| Sequence | switch fluorescence ratio |
| --- | --- |
| CAGGGGAGGG | 1.06 ± 0.09 |
| CAGGGGGCCA | 0.984 ± 0.033 |
| CAGGGGGGAG | 0.992 ± 0.035 |
| CAGGGGGGGC | 1.01 ± 0.026 |
| CAGGGGGTAC | 1.09 ± 0.086 |
| CAGGGGGTCC | 1.01 ± 0.022 |
| CAGGGGGTGC | 1.03 ± 0.072 |
| CAGGGGGTGT | 1.03 ± 0.032 |
| CAGGGGTGAT | 1.18 ± 0.19 |
| CAGGGGTGGC | 0.9529 ± 0.0021 |
| CAGGGGTTGG | 1.02 ± 0.028 |
| CAGGGGTTGT | 1.21 ± 0.31 |
| CAGGGGTTTA | 1.03 ± 0.034 |
| CAGGGTAACT | 1.04 ± 0.066 |
| CAGGGTACGA | 1.05 ± 0.012 |
| CAGGGTGAGA | 1.04 ± 0.016 |
| CAGGGTGGGT | 1.02 ± 0.05 |
| CAGGGTTAGG | 1.01 ± 0.026 |
| CAGGTAAAGG | 1.01 ± 0.022 |
| CAGGTAAGGA | 0.969 ± 0.01 |
| CAGGTAGGAG | 0.985 ± 0.017 |
| CAGGTATGTT | 1 ± 0.016 |
| CAGGTCATTA | 0.9784 ± 0.0076 |
| CAGGTGGTCA | 1 ± 0.021 |
| CAGGTGTGGA | 1.044 ± 0.0053 |

| Sequence | switch fluorescence ratio |
| --- | --- |
| CAGGTTAGGT | 1.004 ± 0.01 |
| CAGGTTATGG | 0.958 ± 0.042 |
| CAGGTTGCAC | 0.9894 ± 0.0069 |
| CAGGTTTTGT | 1.01 ± 0.036 |
| CAGTAAGTGG | 0.999 ± 0.02 |
| CAGTAATTTT | 0.999 ± 0.013 |
| CAGTACGGGG | 1 ± 0.01 |
| CAGTAGCTGT | 1.204 ± 0.0022 |
| CAGTCCGGGA | 1.101 ± 0.0079 |
| CAGTCTGGGG | 0.964 ± 0.012 |
| CAGTCTGTGT | 0.9921 ± 0.0075 |
| CAGTGAGGTA | 0.984 ± 0.023 |
| CAGTGATTC | 1.26 ± 0.35 |
| CAGTGGAGTG | 0.98561 ± 8.7e-05 |
| CAGTGGGGAC | 1.03 ± 0.055 |
| CAGTGGGGCT | 1.016 ± 0.0057 |
| CAGTGGTCGG | 1 ± 0.038 |
| CAGTGTACGG | 1.04 ± 0.013 |
| CAGTGTCGGG | 0.9984 ± 0.0085 |
| CAGTGTCTGC | 0.9726 ± 0.0016 |
| CAGTGTGGTT | 1.11 ± 0.24 |
| CAGTGTGTGG | 0.9696 ± 0.0024 |
| CAGTTAGACA | 0.99 ± 0.081 |
| CAGTTATGAC | 0.987 ± 0.011 |
| CAGTTCACCT | 1.082 ± 0.0063 |

| Sequence | switch fluorescence ratio |
| --- | --- |
| CAGTTCGTTT | 0.9845 ± 0.0063 |
| CAGTTGGGAC | 1 ± 0.054 |
| CAGTTGTGTG | 0.994 ± 0.034 |
| CAGTTGTTTT | 1.02 ± 0.034 |
| CAGTTTAATG | 1.014 ± 0.0015 |
| CAGTTTAGCT | 1.02 ± 0.015 |
| CAGTTTGTGG | 0.9917 ± 0.0018 |
| CAGTTTGTTG | 0.973 ± 0.037 |
| CAGTTTTACA | 1.05 ± 0.016 |
| CATAAAAACT | 1.06 ± 0.017 |
| CATAAGGGGA | 0.994 ± 0.038 |
| CATACAAGGG | 1.019 ± 0.0029 |
| CATACAATGC | 2.02 ± 0.11 |
| CATACACATT | 1.06 ± 0.048 |
| CATACCCTTG | 1.01 ± 0.037 |
| CATACGAAGT | 1.02 ± 0.068 |
| CATACGGGTA | 1.042 ± 0.00018 |
| CATACTAACG | 1.33 ± 0.062 |
| CATAGATGGA | 1.03 ± 0.036 |
| CATAGATGGG | 1.01 ± 0.015 |
| CATAGCAAGG | 1.66 ± 0.099 |
| CATAGGAACG | 0.955 ± 0.045 |
| CATAGGATGG | 0.947 ± 0.025 |
| CATAGGGGAC | 0.978 ± 0.066 |
| CATAGGGGTA | 1.01 ± 0.04 |

| Sequence | switch fluorescence ratio |
| --- | --- |
| CATAGGGTTT | 1.04 ± 0.047 |
| CATAGGTACA | 1.089 ± 0.0035 |
| CATAGGTCGG | 0.974 ± 0.021 |
| CATAGGTTAT | 0.993 ± 0.048 |
| CATATACATT | 1.056 ± 0.0039 |
| CATATATTCT | 0.977 ± 0.033 |
| CATATGATCG | 0.961 ± 0.025 |
| CATATGGCTT | 1.02 ± 0.023 |
| CATATGGGGA | 0.982 ± 0.011 |
| CATATTGAAT | 1.01 ± 0.02 |
| CATATTGGGA | 0.996 ± 0.032 |
| CATCAAAAAT | 1.29 ± 0.3 |
| CATCAAGGGA | 1.02 ± 0.045 |
| CATCAGTTGA | 1.02 ± 0.018 |
| CATCCACGTA | 1.2 ± 0.083 |
| CATCCTTGGA | 0.996 ± 0.012 |
| CATCGAGGAC | 1.06 ± 0.072 |
| CATCGATTGC | 1.03 ± 0.013 |
| CATCGGAGGA | 1.02 ± 0.025 |
| CATCGGGGGG | 1 ± 0.02 |
| CATCGGTATA | 1.06 ± 0.017 |
| CATCTAAGGC | 1.07 ± 0.049 |
| CATCTAGTGC | 1.045 ± 0.0031 |
| CATCTATGGT | 0.992 ± 0.01 |
| CATCTCCGGT | 1.13 ± 0.0087 |

| Sequence | switch fluorescence ratio |
| --- | --- |
| CATCTGATGC | 1.08 ± 0.015 |
| CATCTGATTA | 0.98832 ± 0.00039 |
| CATCTTAGCT | 1.035 ± 0.0054 |
| CATCTTTGAA | 1.05 ± 0.017 |
| CATGAAAGAC | 1.05 ± 0.041 |
| CATGATAGTT | 0.997 ± 0.017 |
| CATGATTGCG | 0.985 ± 0.024 |
| CATGATTTGA | 1.011 ± 0.0092 |
| CATGCCATCC | 1.16 ± 0.051 |
| CATGCCGGGA | 1.22 ± 0.38 |
| CATGCGTCGA | 1.044 ± 0.0035 |
| CATGCTTGGT | 1.013 ± 0.00025 |
| CATGGAGGGG | 0.9617 ± 0.0061 |
| CATGGATACA | 0.978 ± 0.052 |
| CATGGATAGG | 1.011 ± 0.008 |
| CATGGCCACC | 1.015 ± 0.0078 |
| CATGGCTAGT | 1 ± 0.011 |
| CATGGGAAGA | 0.9755 ± 0.004 |
| CATGGGATGC | 1.08 ± 0.1 |
| CATGGGTCCT | 1.04 ± 0.033 |
| CATGGGTGTG | 0.993 ± 0.042 |
| CATGGTAGAG | 0.975 ± 0.034 |
| CATGGTGCCC | 1.03 ± 0.026 |
| CATGGTGGCG | 1.01 ± 0.022 |
| CATGGTGGGA | 0.969 ± 0.017 |

| Sequence | switch fluorescence ratio |
| --- | --- |
| CATGTAACGC | 1.04 ± 0.066 |
| CATGTAATTT | 0.966 ± 0.034 |
| CATGTAGCCG | 1.01 ± 0.061 |
| CATGTATGCT | 1 ± 0.014 |
| CATGTATTTT | 0.991 ± 0.041 |
| CATGTCAGGA | 1.02 ± 0.018 |
| CATGTCTGTA | 1 |
| CATGTGATTA | 1.007 ± 0.01 |
| CATGTGGCGG | 0.995 ± 0.0016 |
| CATGTGGGTG | 1 ± 0.047 |
| CATGTGTGAG | 0.949 ± 0.026 |
| CATGTGTGGT | 1.004 ± 0.0078 |
| CATGTGTTGC | 0.987 ± 0.012 |
| CATGTTAGTC | 1.01 ± 0.012 |
| CATGTTATCC | 1.01 ± 0.034 |
| CATGTTGGTA | 0.9946 ± 0.0076 |
| CATGTTTCTG | 0.9927 ± 0.0078 |
| CATGTTTTGG | 0.9836 ± 0.0043 |
| CATGTTTTTG | 1 ± 0.025 |
| CATTAAAGAT | 1.01 ± 0.077 |
| CATTAAAGCC | 0.968 ± 0.025 |
| CATTAGAGGT | 0.995 ± 0.014 |
| CATTAGTAGC | 1.02 ± 0.05 |
| CATTATATCG | 1 ± 0.023 |
| CATTATGCTT | 0.9864 ± 0.0014 |
